# According to the supplement of paper PMC9170038:
# Test system: MS2 coat protein
# Experiment: apparent KD of MS2 coat protein; designed switch direction (-1 OFF switch, 1 ON switch): 1; higher = weaker reporter binding
# In short: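 For each design, the apparent KD is the median over clusters of curves fitted to normalised cluster fluorescence. Clusters held RNA switches with common flanks, transcribed on Illumina chips by stalled E. coli RNA polymerase. These were titrated with SNAP-549-labelled MS2 coat protein, doubling from 0.7 or 1.5 nM to 3 µM, without input, with 200 uM small-molecule ligand, or with an oligonucleotide input.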
# [1] = Eterna round: R95, input ligand: FMN 200 uM
# [2] = Eterna round: R95, input ligand: microRNA oligo, concentration not stated
# [3] = Eterna round: R95, input ligand: none
# [4] = input ligand: microRNA oligo, concentration not stated
Sequence,apparent KD of MS2 coat protein [1],apparent KD of MS2 coat protein [2],apparent KD of MS2 coat protein [3],apparent KD of MS2 coat protein (input ligand: FMN 200 uM),apparent KD of MS2 coat protein [4],apparent KD of MS2 coat protein (input ligand: none)
AGAGCCGGCACUGAGGAUAUUCAUAAUAAAACAUGAGGAUCACCCAUGUAGGCCAGAAGGCCUUGGGAGAAGGCAGGUCGGCUCA [Mat - Same State 2 - Mod of UCT - D67] (puzzle: Same State 2),16.7 nM,176 nM,269 nM,,,
"CGCCAAUUGGCACAGGAUAUGAGCAUGCUCACAUGAGGAUCACCCAUGUGAUUACCAACGCAAAAUCAGAAGGGUGCCCUCGUCA [Beanza] (Eterna round: R96, puzzle: Same State 2)",,,,80.6 nM,99.1 nM,164 nM
"GUGGAGGGUUAAGGAUAUUGAAUACAUAUGUUUAACAUGAGGAUCACCCAUGUGGGUUGCGGUAUCGAGAAGGUAAAUUACUGG [salish99_SSNG2_r04_035] (Eterna round: R96, puzzle: Same State NG 2)",,,,192 nM,151 nM,133 nM
"UUGCGGGCUUGAGGAUAUUGAGUACAUAUGUUUAACAUGAGGAUCACCCAUGUGGGUUGCGGUAUCGAGAAGGUAACUUCCUUC [salish99_SSNG2_r04_810] (Eterna round: R96, puzzle: Same State NG 2)",,,,190 nM,146 nM,157 nM
"AUUAUUUAUGCAGGAUAUGAUUAACAUGAGGAUCACCCAUGUGGUGUUGUGAGUAAGGAGAGUGAUCAGAAGGGCAUUUGUUUU [JMF's solution 48] (Eterna round: R96, puzzle: Same State NG 2)",,,,386 nM,321 nM,402 nM
UGCUAUAGUAUAUUGGUGCAAGCUUUUUGACAUGAGGAUCACCCAUGUACUCGUCUUAAGCGCAGUCCGUAGACUGC (puzzle: Sensor for hsa-mir-208a),84.5 nM,13.8 nM,89.9 nM,,,
"CUGCUCGUGUGAGGAUAUGCCGCCGUUUCGGCUGCAGAAGGUGCUACGUUACAUGAGGAUCACCCAUGUCUCUGUUGUUUCGUC [salish99_SSNG1_r04_946] (Eterna round: R96, puzzle: Same State NG 1)",,,,25.6 nM,18.7 nM,31.3 nM
"CUGAAAUGUCAAGGAUAUCACGUCGAUUAGACGUGAGAAGGUGAUCUACACAUGAGGAUCACCCAUGUGUUACGUGGGAGUCAG [Brourd's SSNG1/1-A2 mod 18] (Eterna round: R96, puzzle: Same State NG 1)",,,,82.1 nM,104 nM,171 nM
"GUGGCCCAGGCACAGGAUAUGUUUCUCGUAACAUGAGGAUCACCCAUGUGCCUAUGAGAUUUAAUGCAGAAGGGUGCACGCCACG [Atiinbe] (Eterna round: R96, puzzle: Same State 2)",,,,18.2 nM,61.3 nM,103 nM
"AUGCCAAAACGAGGAUAUGGAGCCUUAUUGGCUCCAGAAGGUGUGACAUGAGGAUCACCCAUGUGGCAGUGGUCUAAUGACCAC [Eli NG1ss - 40] (Eterna round: R96, puzzle: Same State NG 1)",,,,94.2 nM,105 nM,133 nM
"GUUGAGAAAUAAGGAUAUACAUGGAAGACACAUGAGGAUCACCCAUGUGGGAGGGAAACCAGGAGGUAGAAGGUAUUGGGAAAC [AK SSNG2-V2-23] (Eterna round: R96, puzzle: Same State NG 2)",,,,33.1 nM,24.1 nM,43.7 nM
"UGAACCUUCACAGGAUAUCAUGCGAAAAUUGCGUGAGAAGGGUGGAUGUGGCGUUCAUAGUUGCACAUGAGGAUCACCCAUGUA [SameState NG1 #50] (Eterna round: R96, puzzle: Same State NG 1)",,,,257 nM,212 nM,134 nM
"GCUGCAAAGGCAGGAUAUGGGUCCAGAGCGCAAAUGCGCUCUGGUACAUGAGGAUCACCCAUGUCCCAGAAGGGCCCAAGCAGC [Inleedbi] (Eterna round: R96, puzzle: Same State NG 2)",,,,17 nM,61.3 nM,117 nM
GAGUGACAUGAGGAUCACCCAUGUAGAAUAGAACAAGGAUAUGUGGAAGGCGGAGGAGAGACAGAAGGUGUUGGAG [JR_SS1_Sub056] (puzzle: Same State 1),47.9 nM,51.2 nM,88 nM,,,
ACCCGAAGUAUAUGGGAACAAGCUUUUUAACAUGAGGAUCACCCAUGUACUCGUCUUAUAAGCAGUCGAAAGACUGC [Sensor 100 - 5] (puzzle: Sensor for hsa-mir-208a),21.7 nM,17.3 nM,44.5 nM,,,
CGUCGCUGUCGAGAGGAUAUGCGGUGAUGGACAUGAGGAUCACCCAUGUUAGCGAUAGCAUCACGGUAGAAGGCUCUUACGACUG [Soteed Omei mod 24] (puzzle: Same State 2),12.6 nM,20 nM,26.8 nM,,,
"GAGUCAGAUCGAGGAUAUUUGUUAUGACGAUCCCACAUGAGGAUCACCCAUGUCCACGAUCCUCCAAAGAAGGUGAGGCUGGCG [Eternabot solution 32] (Eterna round: R96, puzzle: Same State NG 2)",,,,202 nM,39.6 nM,88.2 nM
"GAGUAGUCAAAAGGAUAUUGAUUAUUGUAGGAUCAAGAAGGUUUUAACAUGAGGAUCACCCAUGUAGGACUAUUCCUGUGUAUC [Parity 91 - Jieux - Same State NG 1] (Eterna round: R96, puzzle: Same State NG 1)",,,,,10.8 nM,
"GUUACAUGAGGAUCACCCAUGUAUGUGUGGGAGUAAGUGUCUUAGGAUAUCUAUGUUUUAAUUUAAGAGAAGGAAGAUUGUUGU [JMF's solution 71] (Eterna round: R96, puzzle: Same State NG 3)",,,,102 nM,102 nM,115 nM
"AUUAUACAUGAGGAUCACCCAUGUAAUUAAUUAAUUAAGAUCAAGGAUAUCAGCUCGUUUAGAGCUGAGAAGGUGAUCACAUGU [SSNG3/20-B3] (Eterna round: R96, puzzle: Same State NG 3)",,,,,147 nM,
"UAUUAGAUCCGAGGAUAUCCUUAUAAGAAACAUGAGGAUCACCCAUGUAAAGGGAAUUAUUUGUAGGAGAAGGCGGAUUUAGUU [JR_SSNG2_Sub055] (Eterna round: R96, puzzle: Same State NG 2)",,,,28.9 nM,23 nM,41.3 nM
"ACAUGAGACCAAGGAUAUUUUGUACCUACAUGUGACAUGAGGAUCACCCAUGUGGUAAGUAUGAGGGAGAAGGUGGAGAUAUGU [Equivalence 24 - Jieux - Same State NG 2] (Eterna round: R96, puzzle: Same State NG 2)",,,,54.3 nM,48.7 nM,73.7 nM
"UAAUUAAGUCAAGGAUAUCACGUCGAAUAGACGUGAGAAGGUGAUUAAUACAUGAGGAUCACCCAUGUAAUACAUGAAUAAUUA [SSNG1/11-B1] (Eterna round: R96, puzzle: Same State NG 1)",,,,38.3 nM,61.6 nM,70.8 nM
GGUCCAGCCUGAGCUGGACAAAAGCAUGUACAUGAGGAUCACCCAUGUUCAUGUACAAGCUUUUUGCUCGUCUUACA [salish99_208a_r3_084] (puzzle: Sensor for hsa-mir-208a),485 nM,14.8 nM,443 nM,,,
"GGAGCCGGCCUAGGAUAUUUCAUAUUAAAACAUGAGGAUCACCCAUGUAGGCCAGAAGGCCUUGGGAAGAAGGAGGUCGGCUCC [Loop Effect - U25,U26] (Eterna round: R96, puzzle: Same State NG 2)",,,,15.2 nM,50.7 nM,87.8 nM
"UGGUCUCACUUAGGAUAUUAGCACCGAAAGAGCUAAGAAGGAGGUGAAACUCUCACAUGAGGAUCACCCAUGUACACCCUAGGG [Eternabot solution 3] (Eterna round: R96, puzzle: Same State NG 1)",,,,162 nM,503 nM,1080 nM
"GUUAGGAAUCUAGCGAACAUGAGGAUCACCCAUGUUAGUGGGAAGGAUAUGGUACAGAAACUGUACCAGAAGGUCUUAUUGUUU [Omei SS(NG) 3 AV11] (Eterna round: R96, puzzle: Same State NG 3)",,,,,332 nM,
